Source: US20090197330A1 (BIOMEDICS, published 2009)
Residue numbers refer to the chain shown, from its start.

T1: human CD20 antigen (human, UniProt P11836 1-297)
T1 construct: whole, on cells; also called CD20/CHO cells; CD20 on Raji cells
T1 sequence (looked up): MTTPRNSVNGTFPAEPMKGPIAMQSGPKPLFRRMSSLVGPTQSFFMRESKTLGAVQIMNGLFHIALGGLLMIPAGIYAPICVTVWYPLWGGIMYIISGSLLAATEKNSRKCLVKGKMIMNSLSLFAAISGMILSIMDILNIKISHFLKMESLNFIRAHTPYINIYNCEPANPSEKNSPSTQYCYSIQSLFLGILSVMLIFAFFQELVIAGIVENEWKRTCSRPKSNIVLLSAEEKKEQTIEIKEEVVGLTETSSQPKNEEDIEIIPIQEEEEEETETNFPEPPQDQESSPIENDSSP

B1: chimeric anti-CD20 monoclonal antibody c1K1791 (antibody, V domains shown)
VH: QIQLVQSGPELKKPGETVKISCKASGYTFTNFGVNWVKQAPGKGLKWMGWINTYTGEPSYADDFKGRFAFSLEASANTAYLQINNLKNDDMSTYFCTRRTNYYGTSYYYAMDYWGQGTSVTVSS
VL: STVMTQTPKFLLVSAGDRVTITCKASQSVSNDVAWYQQKPGQSPKVLIYFASNRYTGVPDRFTGSGYGTDFTFTINTVQAEDLAVYFCQQDYSSPLTFGAGTKLELK
notes: Murine variable regions fused to human immunoglobulin H chain and L chain (kappa) constant regions of vector pNOW-Ab
B2: chimeric anti-CD20 monoclonal antibody c1K1422 (antibody, V domains shown)
VH: QVQLQQPGAELVKPGASVKMSCRASGYTFTNYNMHWIKQTPGQGLEWIGAIYPGSGDTSYNRKFKGKATLTADTSSSTAYMQFSSLTSADSAVYYCARFTYYYGGTYGAMDYWGQGTSVTVSL
VL: QIVLTQSPPIMSASLGEEITLTCSASSRVSYMLWYQQKSGTSPKLLIYSTSNLASGVPSRFSGSGSGTFYSLTISSVEAEDAADYYCHQWTSNPCTFGGGTKLEIK
notes: as for B1
B3: murine anti-CD20 monoclonal antibody 1K1228 (antibody, V domains shown)
VH: QVQLQQPGAELVKPGASVKVSCKASGFTFTSYNLHWVKQTPGQGLVWIGAIYPGNGDTSYNQKFRGKATLTADISSSTAYMQLSSLTSEDSAVYYCARYYYGYDAMDYWGQGTSVTVSS
VL: EIILTQSPTTMAASPGEKITITCSASSSISSYYLRWYQQKPGFSPKVLIYRTSNLASGVPARFSGSGSGTSYSLTIGTMEAEDVATYYCQQGNTVPLTFGSGTKLEIK
notes: Mouse monoclonal antibody from a hybridoma, purified on protein G
B4: chimeric anti-CD20 monoclonal antibody c1K1228 (antibody, V domains shown)
VH: B3 VH
VL: B3 VL
notes: as for B1
B5: chimeric anti-CD20 monoclonal antibody c1K1782 (antibody, V domains shown)
VH: QVQLQQSGAELAKPGASVKMSCKASGYTFTSYWMHWVKQRPGQGLEWIGYITPSTGYTDYNKKFKDKATLTADRSSSTAYMHLSSLTSEDSAVYYCARSGPYFDVWGAGTTVTVSS
VL: DILLTQSPAILFVSPGERVSLSCRASQNIGTSIHWYQQRTNGSPRLLIKYASESFSGIPSRFSGSGSGTDFTLSINSVESEDIADYYCQQSNSWPFTFGSGTKLEIK
notes: as for B1
B6: murine anti-CD20 monoclonal antibody 1K1402 (antibody, V domains shown)
VH: QVQLQQPGAELVKPGASVKMSCKASGFTFTSYNMHWVKQTPGQGLEWIGGIYPGNGDTSYNQKFKGKATLTADKSSSTAYMQLSSLTSEDSAVYYCARFYYYGSMGAMDYWGQGTSVTVSS
VL: QIVLSQSPAILSASPGEKVTMTCRASSSVSYMHWYQQKPGSSPKPWIYATSNLASGVPARFSGSGSGTSYSLTITRVEAEDAATYYCQQWTFNPPTFGAGTKLELK
notes: Mouse monoclonal antibody from a hybridoma
B7: Rituximab (c2B8) (antibody, V domains shown)
VH: QVQLQQPGAELVKPGASVKMSCKASGYTFTSYNMHWVKQTPGRGLEWIGAIYPGNGDTSYNQKFKGKATLTADKSSSTAYMQLSSLTSEDSAVYYCARSTYYGGDWYFNVWGAGTTVTVSA
VL: B6 VL with M32I, Y35F, A59V, T75S, F92S, A99G, L105I
B8: chimeric anti-CD20 monoclonal antibody c1K0924 (antibody, V domains shown)
VH: QVQLQQPGAELVKPGASVKMSCKASGYTFTSYNIHWVKQTPGQGLEWIGAIYPGNGDTSYNQKFKGKATLTSDKSSSTAYMQLSSLTSEDSAVYYCARMSTMITGFDYWGQGTTLTVSS
VL: B6 VL with K38R, S71Y, L72F, T75S, T91N, F92S, F97H, A99G, L105I
notes: as for B1
B9: chimeric anti-CD20 monoclonal antibody c1K1712 (antibody, V domains shown)
VH: QVQLQQPGAELVKPGASVKMSCKASGFTFTSYNLHWVKQTPGQGLEWIGAIYPGSGDTSYNQQFKGKATLTADKSSNTAYMQLNSLTSEDSAVYCCARSAMISTGNWYFDYWGQGTTLTVSS
VL: B6 VL with H33D, T75S, A82T, A99S, L105I
notes: as for B1
B10: chimeric anti-CD20 monoclonal antibody c1K1402 (antibody, V domains shown)
VH: B6 VH
VL: B6 VL
notes: as for B1
B11: chimeric anti-CD20 monoclonal antibody c1K1736 (antibody, V domains shown)
VH: QVQLQQPGAELVKPGASVKMSCKASGYTFTTYNLHWVKQTPGQGLEWIGGIYPGNGDTSYNQKFKVKATLTADKSSNTAYMQLSSLTSEDSAVYYCARWIYYGNYEGTLDYWGQGTSVTVSS
VL: B6 VL with A13S, H33L, K44E, S64G, T75S, A99G, L105I
notes: as for B1

Key:
[1] = target: T1, human CD20 antigen; experiment: CD20/CHO cell-ELISA, antibody at 32 ng/ml
Text: (§1) The prepared 8 kinds of chimeric anti-CD20 monoclonal antibodies were examined for reactivity to the human CD20 antigen by the CD20/CHO cell-ELISA. Rituximab (c2B8) was used as a positive control. The values measured in the cell-ELISA (A492) reflect intensity of the binding property.

[2] = target: T1, human CD20 antigen; experiment: CD20/CHO cell-ELISA, antibody at 100 ng/ml
Text: as §1

[3] = target: T1, human CD20 antigen; experiment: CD20/CHO cell-ELISA, antibody at 10 ng/ml
Text: as §1

[4] = target: T1, human CD20 antigen; experiment: CD20/CHO cell-ELISA, antibody at 3 ng/ml
Text: as §1

[5] = target: T1, human CD20 antigen; experiment: CD20/CHO cell-ELISA, antibody at 1 ng/ml
Text: as §1

[6] = target: T1, human CD20 antigen; experiment: CD20/CHO cell-ELISA, antibody at 3 ng/ml; remark: listed apart in the source
Text: (§2) Several murine anti-CD20 monoclonal antibodies and 2B8 were reacted by using 96-well plates to which the SB cells, Raji cells, CD20/CHO cells and CD20 CHO parent cell line were adhered.

[7] = target: T1, human CD20 antigen; experiment: Raji cell-ELISA, antibody at 32 ng/ml
Text: as §2

[8] = target: T1, human CD20 antigen; experiment: SB cell-ELISA, antibody at 32 ng/ml
Text: as §2

[9] = target: T1, human CD20 antigen; experiment: Raji cell-ELISA, antibody at 10 ng/ml
Text: as §2

[10] = target: T1, human CD20 antigen; experiment: SB cell-ELISA, antibody at 320 ng/ml
Text: as §2

[11] = target: T1, human CD20 antigen; experiment: SB cell-ELISA, antibody at 10 ng/ml
Text: as §2

[12] = target: T1, human CD20 antigen; experiment: CD20/CHO cell-ELISA, antibody at 320 ng/ml
Text: as §2

[13] = target: T1, human CD20 antigen; experiment: CD20/CHO cell-ELISA, antibody at 10 ng/ml; remark: listed apart in the source
Text: as §2

[14] = target: T1, human CD20 antigen; experiment: CD20/CHO cell-ELISA, antibody at 32 ng/ml; remark: listed apart in the source
Text: as §2

[15] = target: T1, human CD20 antigen; experiment: Raji cell-ELISA, antibody at 100 ng/ml
Text: as §2

[16] = target: T1, human CD20 antigen; experiment: CD20/CHO cell-ELISA, antibody at 1000 ng/ml
Text: as §2

[17] = target: T1, human CD20 antigen; experiment: CD20/CHO cell-ELISA, antibody at 100 ng/ml; remark: listed apart in the source
Text: as §2

[18] = target: T1, human CD20 antigen; experiment: Raji cell-ELISA, antibody at 1000 ng/ml
Text: as §2

[19] = target: T1, human CD20 antigen; experiment: SB cell-ELISA, antibody at 1000 ng/ml
Text: as §2

[20] = target: T1, human CD20 antigen; experiment: Raji cell-ELISA, antibody at 320 ng/ml
Text: as §2

[21] = target: T1, human CD20 antigen; experiment: SB cell-ELISA, antibody at 100 ng/ml
Text: as §2

Binder	A492 [1]	A492 [2]	A492 [3]	A492 [4]	A492 [5]	also measured
B1	1.46 A492	2.23 A492	0.745 A492	0.276 A492	0.108 A492	–
B2	0.912 A492	1.92 A492	0.357 A492	0.151 A492	0.077 A492	–
B3	–	–	–	–	–	A492 [6]: 0.265 A492; A492 [7]: 0.326 A492; A492 [8]: 0.192 A492; A492 [9]: 0.148 A492; A492 [10]: 0.931 A492; A492 [11]: 0.082 A492; A492 [12]: 2.7 A492; A492 [13]: 0.572 A492; A492 [14]: 1.27 A492; A492 [15]: 0.678 A492; A492 [16]: 3.06 A492; A492 [17]: 2.09 A492; A492 [18]: 1.68 A492; A492 [19]: 1.26 A492; A492 [20]: 1.17 A492; A492 [21]: 0.452 A492
B4	1.58 A492	2.23 A492	0.701 A492	0.289 A492	0.12 A492	–
B5	1.02 A492	2.1 A492	0.505 A492	0.169 A492	0.074 A492	–
B6	–	–	–	–	–	A492 [6]: 0.174 A492; A492 [7]: 0.102 A492; A492 [8]: 0.095 A492; A492 [9]: 0.061 A492; A492 [10]: 0.4 A492; A492 [11]: 0.066 A492; A492 [12]: 1.57 A492; A492 [13]: 0.389 A492; A492 [14]: 0.824 A492; A492 [15]: 0.214 A492; A492 [16]: 1.88 A492; A492 [17]: 1.49 A492; A492 [18]: 1.23 A492; A492 [19]: 0.763 A492; A492 [20]: 0.525 A492; A492 [21]: 0.152 A492
B7	1.14 A492	2.15 A492	0.536 A492	0.226 A492	0.088 A492	–
B8	0.724 A492	1.42 A492	0.391 A492	0.186 A492	0.094 A492	–
B9	1.68 A492	2.29 A492	0.793 A492	0.359 A492	0.145 A492	–
B10	1.62 A492	2.45 A492	0.737 A492	0.349 A492	0.116 A492	–
B11	1.55 A492	2.43 A492	0.748 A492	0.32 A492	0.122 A492	–
